What was measured:
THP-1 cells = experiment: THP-1-luciferase cell-derived xenograft (CDX) model; assay type: in vivo, NSG mice; settings: 10 mg/kg i.p. twice a week
Experimental: FIGS. 29A-29C display h11B3 LAIR-1 mAbs, containing a variable light chain of SEQ ID NO: 16 and a variable heavy chain of SEQ ID NO:27, limits Leukemic cell growth in CDX Models. 2e6 luciferase-expressing MV4-11-Luc or THP-1-Luc cells were suspended in sterile PBS and implanted into NSG mice via tail-vein injection. Starting on day 8 post-challenge, mice were treated twice-weekly by intraperitoneal (i.p.) injection of 10 mg/kg of h11B3 LAIR-1 mAbs, containing a variable light chain of SEQ ID NO: 16 and a variable heavy chain of SEQ ID NO:27, or isotype (FIG. 29A). AML cell proliferation was monitored by weekly i.p. injection of D-Luciferin, immediately followed by IVIS bioluminescent imaging and quantification of luminescent signal. Mice NOD.Cg-Prkdcscid Il2rgtm1Wjl/SzJ (NSG) purchased from Jackson Labs strain #005557. Substrate Xenolight RediJect D-Luciferin Perkin Elmore Cat #770504. Imaging Perkin Elmore IVIS Lumina XRMS Series III.
NSG mice were injected with 2e6 THP-1 luciferase cells or 2e6 MV4-11-luciferase cells via tail vein injection. Leukemia progression was quantified by i.p. injection of 100 μL bioluminescent substrate and IVIS imaging 8 minutes post injection. Progression was assessed weekly staring on Day 7 post-challenge. […] Tumor growth was measured by calipers twice weekly until end point.

AML patient cells = experiment: Ex vivo depleting assay, AML patient blood leukocytes; assay type: cell-based, human
Experimental: Whole blood from AML-diagnosed donors was RBC-depleted using StemCell RBC depletion kit following the manufacturer's instructions. Leukocytes were re-suspended in complete RPMI media containing 3 μg/mL of soluble mAb, then plated in 96-well round-bottom plates for 48 hours at 37° C. Cell death was analyzed by AnnexinV and Fixable Live-Dead staining following the manufacturer's instructions, quantified by flow cytometry. RBC depletion StemCell Ref #18170. Isotype=FC-G1 BioXcell Ref #BE0096. Live-Dead Stain Invitrogen Cat #L34966. AnnexinV-AF647 Biolegend Cat #640943.
Fresh whole blood was RBC-depleted using the EasySep™ RBC Depletion Reagent (StemCell, Vancouver, BC) following the manufacturer's protocol. Alternatively, frozen PBMCs were thawed in pre-warmed cRPMI media. Cell number was determined by VI-Cell XR cell counter. 2e5 cells per well were plated into 96-well plates lacking or containing 50 μg/mL pre-coated human Collagen I (StemCell, Vancouver, BC) in 200 μL of cRPMI containing 10 μg/mL of soluble LAIR-1 mAb or isotype control antibody (NP782 (NextCure, Beltsville, MD) or InVivoMAb recombinant human IgG1 Fc (BioXcell, Lebanon, NH)). Plates were centrifuged at 100×g for 2 minutes, then incubated for 20 hours at 37° C. in a TC incubator. At the end of incubation period, plates were centrifuged at 500×g for 4 min. […]

AML PBMCs = experiment: ADCC assay, AML patient PBMCs with healthy donor NK cells; assay type: cell-based, human; settings: 3:1 Target:Effector ratio, 4 hours
Experimental: ADCC was measured using the CytoTox 96® Non-Radioactive Cytotoxicity Assay (Promega) following the manufacturer's instructions. Briefly, AML patient PBMCs were mixed with healthy donor NK cells at a 3:1 Target:Effector ratio in complete RPMI containing the indicated concentration of soluble h11B3 or Fc-G1 isotype control. Mixed cells were incubated for 4 hours at 37 deg C. Test wells were run in quadruplicate. AML PBMCs-Donor #200018616, newly diagnosed/untreated. NK cells-Healthy Donor #83, isolated from PBMCs via StemCell Kit #17955 following manufacturer's instructions. CytoTox 96® Non-Radioactive Cytotoxicity Assay Promega Cat #G1780. % Cytotoxicity quantified by target cell LDH release. % Cytotoxicity=((Test Well LDH Release−Effector Cell Spontaneous Release−Target Cell Spontaneous Release)/(Target Cell Max Release−Target Cell Spontaneous Release))*100. Target Cells=AML PBMCs Donor #200018616; Effector Cells=NK cells isolated from healthy Donor #83 PBMCs. […] ADCC was measured using the Toxilight Bioluminescent Cytotoxicity Assay (Lonza)) following the manufacturer's instructions. […] Toxilight Bioluminescent Cytotoxicity Assay kit Lonza Cat #LT17-217. % Cytotoxicity quantified by target cell adenylate kinase release; ADCC calculated as described above. […]

MV4-11 cells = experiment: Phospho-array on in vivo grown MV4-11 cells, subcutaneous CDX model; design: species or system NSG mice; settings: 10 mg/kg weekly i.p.
Experimental: NSG mice were injected with 2e6 THP-1 luciferase cells or 2e6 MV4-11-luciferase cells via tail vein injection. Leukemia progression was quantified by i.p. injection of 100 μL bioluminescent substrate and IVIS imaging 8 minutes post injection. Progression was assessed weekly staring on Day 7 post-challenge. 10 mg/kg mab treatment was performed by i.p injection starting on day 8 and continuing twice a week until the end of the study. For the subcutaneous engraftment model, NSG mice were subcutaneously injected on the right flank with 5e6 MV4-11-Luc-LAIR-1^OE cells. Mice were treated by weekly i.p. injection of 10 mg/kg mAb. Tumor growth was measured by calipers twice weekly until end point.

B1: LAIR-1 mAb: humanized agonist anti-LAIR-1 mAb, IgG1 backbone; h11B3 VL-2 (SEQ ID NO: 16), h11B3 VH-3 (SEQ ID NO: 27) (antibody, V domains shown)
VH: EVQLVESGGGLVQPGGSLKLSCAASGFTFNTNAMYWVRQAPGKGLEWVGRIRSKSSNYATYYAASVKGRFTISRDDSKNTLYLQMNSLKTEDTAVYYCVRGGSGFFAYWGQGTLVTVSS
VL: DIQMTQSPSSLSASLGDRVTITCKASEDIYIRLAWYQQKPGKAPRLLISTATSLETGVPSRFSGSGSGTDYTFTISSLQPEDIATYYCQQYWSTPYTFGGGTRLEIK
modifications: IgG1 constant regions; Synthetic: h11B3 VH-3; Synthetic: h11B3 VL-2
leukemic cell growth in vivo (THP-1 cells): inhibited leukemic cell growth
AML cell death (AML patient cells; 3 μg/mL soluble mAb, 48 hours): induces AML cell death
cell death of total AML patient cells or CD45Low SSCLow blasts (AML patient cells; 10 μg/mL, plate-coated collagen): significant cell death
ADCC (AML PBMCs): induces AML cell death through antibody dependent cytotoxicity (ADCC)
MAPK pathway (MV4-11 cells): significantly suppressed
activation of mTORC, AKT, and NF-kB (MV4-11 cells): inhibited activation
